Measurements: patent US20220073617A1 (published 2022)
Like-named read-outs stand apart in the source and are kept apart here.

How the values were obtained:
[1] = molecular target: T1, monovalent hVISTA-ECD (amino acids 32-193 of SEQ ID NO: 1 with a 7xHis tail) (UniProt Q9H7M9 33-193); assay: SPR; pH 6.0
[2] = molecular target: T1, monovalent hVISTA-ECD (amino acids …); assay: SPR; pH 6.0; remark: listed apart in the source

T1 sequence (Q9H7M9 other isoform, or with tags, fused parts or gaps): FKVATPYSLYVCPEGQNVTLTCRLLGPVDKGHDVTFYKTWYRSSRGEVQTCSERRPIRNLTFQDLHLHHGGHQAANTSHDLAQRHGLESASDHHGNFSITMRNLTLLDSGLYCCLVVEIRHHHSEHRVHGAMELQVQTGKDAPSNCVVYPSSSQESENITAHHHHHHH

B1: P1-061029.IgG1.3 (antibody, V domains shown)
VH: EVQLVESGGGLVQPGKSLRLSCAASGFTLDDYAMHWVRQAPGKGLEWVSGINWNSANIGYADSVKGRFTISRDNAKNSLYLQMNSLRTEDTALYYCAKVPGYSGGWIDAFDVWGQGTMVTVSS
VL: not shown
Work on B1 yielded a Kd [1] of 4.5 nM and a Kd [2] of 4.5 nM.
